Columns and labels:
GADD45 = experiment: Interaction with GADD45 (results not shown); format: binding
22Rv.1 cells = experiment: CellTiter-Blue proliferation/viability assay; format: cell-based; conditions: 22Rv.1 clones P25, P29 and P42 vs vector clones V18, V19 and V33; no ER stress; 2 days; at least four independent experiments, p<0.05
Description: CellTiter-Blue® cell viability assay kit (Promega) was used for the determination of cell viability. Briefly 22Rv.1 cells stably overexpressing the Bag-1 peptide were seeded into two 96 well plate (4500 cells/well) and the measurements were performed in triplicate. One plate was analyzed at day 0 and the other plate, 2 days later. Three hours after seeding, 20 µl of dye were added to each well containing 100 µl of culture medium and incubated for 4 h at 37°C. Fluorescence was measured by the plate-reading fluorometer FluoStar Optima (2001, BMG Labtechnology, software version 1.10–0) and presented as the ratio of the value at the excitation wavelength (560 nm) over the emission wavelenght (590 nm). Cell proliferation was determined from the difference between the fluorescence intensity at the final time point and the value obtained at the day of seeding of the cells (day 0).
Figure 4 The Bag-1 peptide inhibits prostate cancer cell growth in vivo. A. Stable clones of 22Rv.1 cells show reduced cell viability in vitro. […] Tumor size was measured once per week using a caliper and expressed as tumor volume in mm^3. […] Nuclei are stained blue-purple with hematoxylin while apoptotic cells detected with the TUNEL assay are stained brown. […]

[1] = test system: unfolded protein response in 22Rv.1 cells; experiment: UPR modulation, Western blot / PCR in 22Rv.1 cells; format: cell-based
Description: Unless otherwise stated, stable transfection was carried out in 22Rv.1 or BPH-1 cells with 10 µg of plasmid DNA using FuGene 6™ (Roche Diagnostics Mannheim, Germany) Stably transfected 22Rv.1 cells were selected with 0.8 mg/ml while BPH-1 cell clones were selected with 1.2 mg/ml G418. LNCaP, PC3, DU145, PNT-2 and RWPE-1 cell clones were selected with 1 mg/ml G418. Specific downregulation of GRP78 expression was achieved by transfecting siRNA-duplexes (GRP78∶5′-[…]-3′) twice in 72 h using HiPerfect™ (Qiagen Hilden, Germany). siRNA against GFP (5′-[…]-3′) was used as a control. Western blot analysis was performed as previously described.
Figure 3 The Bag-1 peptide modulates the UPR and sensitizes 22Rv.1 cells to ER-stress. A. UPR modulation upon Bag-1 peptide overexpression. Pooled clones of 22Rv.1 cells transfected with pcDNA3.1-HA-Bag-1 68 amino acid peptide or an empty expression vector were treated with 300 nM thapsigargin (TG) for the indicated time points. Cells were lysed and subjected to Western blot analysis using the indicated antibodies or phospho-specific antibodies. B. The Bag-1 peptide sensitizes 22Rv.1 cells to ER-stress induced apoptosis. Pooled clones of 22Rv.1 transfected with the Bag-1 peptide or the empty expression vector were treated with thapsigargin (TG) or glucose-starved (GS) for 24 h. The cells were lysed and subjected to Western blot analysis using anti-PARP and caspase 4 specific antibodies. Anti-HA antibody was used to detect the HA-Bag-1 peptide. […] C. […] Pooled clones of 22Rv.1 expressing HA-tagged Bag-1 peptide or an empty expression vector were transfected with GRP78/BiP siRNA or control GFP siRNA. The cells were lysed and Western blot was carried out with anti-PARP, anti-GRP78 and anti-HA antibodies. β-actin antibody was used to determine the level of protein loaded on the gel.
A. Real time PCR analysis of ATF6 gene expression following thapsigargin (300 nM) treatment for the indicated time points in 22Rv.1 cell clones with empty vector control (open bars) and peptide-expressing clones (filled bars). The RNA was extracted using PeqGold RNA pure (PeqLab, Germany) kit according to manufacturer’s instructions. For gene expression analysis, the following primers were used: Rib36 forward 5′-[…]-3′; reverse 5′-CCGGATATGAGGCAGCAG-3′; ATF6 forward 5′-[…]-3′; reverse 5′-[…]-3′. Each bar represents the mean of three independent experiments ± SEM. *p<0.05. B. Western blot analysis of ATF6 and its cleaved product (cATF6) in LNCaP cells stably expressing the empty vector control or the Bag-1 peptide. Anti-ATF6 specific antibody and an anti-HA specific antibody were used for the Western blot. β-actin antibody was used to determine equal loading control. Mouse monoclonal anti-ATF6 antibody was purchased from Imgenex (Hamburg, Germany), mouse monoclonal anti-HA antibody (HA.11 clone 16B12) was purchased from Covance (Munich, Germany) and anti-β-actin antibody was purchased from Abcam (Cambridge, UK). (TIF) Click here for additional data file.
Supplementary file pone.0045690.s004.tif: Figure S4 The Bag-1 peptide induces GCN2 phosphorylation. 22Rv.1 cells stably expressing the empty vector control or the Bag-1 peptide were treated with thapsigargin (300 nM) for 16 h and subjected to Western blot analysis using anti-phospho-GCN2, GCN2 and HA-specific antibodies. The filters used in this experiment for the GCN2 signals are the same filters used in Figure 3A. The HA-Bag-1 peptide and the β-actin signals are therefore identical to that of Figure 3A. (TIF) Click here for additional data file.

[2] = Bag-1 peptide expressing 22Rv.1 cells, thapsigargin 300 nM, 16 h
[3] = stable Bag-1 peptide expression, 22Rv.1, thapsigargin 300 nM
[4] = stable Bag-1 peptide expression, 22Rv.1, thapsigargin 300 nM, vs vector control

B1: Bag-1 peptide: internal sequence of 68 amino acids of Bag-1 (Bag1-L 202–269), HA-tagged, expressed from pcDNA3 (peptide)
chain: TPLSALGIQDGCRVMLIGKKNSPQEEVELKKLKHLEKSVEKIADQLEELNKELTGIQQGFLPKDLQAE
modifications: also: HA tag, end not given here
For B1, the “interaction with GADD45” value (GADD45) was “interact with GADD45”, the proliferation (22Rv.1 cells) was “significantly reduced proliferation” and the CHOP expression ([1]; Bag-1 peptide expressing 22Rv.1 cells, thapsigargin 300 nM) was “increased expression of the pro-apoptotic factor CHOP”. For the same molecule, the GCN2 [1, 2] was “upregulated in the peptide expressing cells”, the GCN2 phosphorylation [1, 2] was “enhanced phosphorylation of GCN2” and the ATF4 activation [1, 3] was “activation of the downstream target ATF4”. For the same molecule, the eIF2α phosphorylation [1, 3] was “increase in eIF2α phosphorylation”, the “thapsigargin-induced expression of GRP78/BiP” value [1, 3] was “inhibition of the thapsigargin-induced expression of GRP78/BiP” and the “cleaved ATF6” value [1, 4] was “significant reduction of cleaved ATF6”. For the same molecule, the “phosphorylation of PERK and IRE1” value [1, 4] was “reduced ER stress-induced phosphorylation of PERK and IRE1”.

— article PMC3462190, “A Peptidic Unconjugated GRP78/BiP Ligand Modulates the Unfolded Protein Response and Induces Prostate Cancer Cell Death” (PLoS ONE, 2012)
